Results: the supplement of paper PMC10567573

B1: MIA2 (parent)
chain: DMVSNIELPTRIHEEVYFEPSSSK
B2: DULLARD (parent)
chain: LVVFTASMEIYGSAVADKLDNSRS

Variants of: B1
Experiment: protein stability index of a GFP-peptide fusion (GPS, HEK-293T) (PSI 1-6); higher = more stable
Details: c terminus: a fixed tail appended
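Note: lentivirally expressed fusions sorted by FACS into six bins by GFP to DsRed ratio, PSI derived from sequencing read proportions per bin multiplied by bin number.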

Protein stability index of substitutions, site by site:
V16: T 4.05, W 3.73, Y 3.49
Y17: A 3.67, C 4.52, D 4.41, E 4.95, F 4.35, G 4.47, H 4.29, I 3.94, K 4.27, L 4.29, M 3.73, N 4.32, P 4.97, Q 4.26, R 5.01, S 4.06, T 4.28, V 4.3, W 4.21
F18: A 4.12, C 3.59, D 5.29, E 4.68, G 4.63, H 4.64, I 4.52, K 3.51, L 4.5, M 4.48, N 4.68, P 4.23, Q 5.12, R 4.28, S 4.62, T 4.63, V 3.8, W 3.52, Y 4.76
E19: A 3.53, C 2.96, D 3.38, F 2.86, G 3.09, H 3.14, I 2.64, K 3.54, L 3.63, M 3.31, N 3.41, P 3.52, Q 3.29, R 3.29, S 3.82, T 3.4, V 3.15, W 2.72, Y 2.87
P20: A 3.69, C 3.42, D 4.6, E 4.28, F 2.42, G 4.16, H 4.06, I 3.02, K 3.84, L 2.72, M 1.88, N 4.12, Q 4.02, R 4.18, S 3.52, T 3.62, V 2.56, W 2.63, Y 2.99
S21: A 3.71, C 3.71, D 4.56, E 4.64, F 3.56, G 4.47, H 3.97, I 4, K 3.46, L 3.34, M 3.4, N 4.19, P 4.3, Q 3.9, R 3.13, T 3.75, V 3.94, W 3.38, Y 3.05
S22: A 4.28, C 3.89, D 4.25, E 4.13, F 3.37, G 3.85, H 4.35, I 3.13, K 3.9, L 2.58, M 3.81, N 4.12, P 4.02, Q 4.13, R 3.73, T 4.03, V 3.95, W 3.17, Y 3.08
S23: A 3.2, C 4, D 4.84, E 5.16, F 3.11, G 4.28, H 3.96, I 3.89, K 3.65, L 3.49, M 3.29, N 3.98, P 3.67, Q 4.41, R 3.56, T 3.92, V 3.82, W 3.08, Y 4.18
K24: A 3.64, C 3.66, E 4.11, F 3.28, G 4.55, H 3.56, I 2.98, L 3.84, M 3.57, N 4.17, P 4.08, Q 4.89, R 3.85, S 3.95, T 4.02, V 3.51, W 2.52, Y 3.32

Variants of: B2
Experiment: as above
Details: c terminus: a fixed tail appended

Protein stability index: each site, then its substitutions
L1: A 1.73, C 1.94, D 2.44, E 2.25, F 2, G 2.31, H 1.19, K 2.09, M 2.29, N 2.9, P 3.74, Q 2.52, R 2.49, S 1.94, T 1.82, V 3.46, Y 2.57
V2: A 2.1, C 1.61, D 3.02, E 2.46, G 2.52, H 2.16, I 2.18, K 1.78, L 1.99, M 2.25, N 2.5, P 2.93, Q 1.96, R 2.25, S 2.35, T 1.72, W 3.1
V3: A 2.48, C 2.03, D 3.23, E 2.33, F 2.15, G 2.75, H 2.21, K 2, L 1.71, M 3.28, N 2.75, P 3.51, Q 2.62, R 2.23, S 1.86, T 1.99, W 1.56, Y 2.68
F4: A 1.61, C 1.08, D 2.05, E 2.27, G 2.24, H 2.78, I 3.55, K 2.91, N 2.4, P 3.61, Q 2.78, R 2.14, S 2.34, T 1.56, W 3.77, Y 2.93
T5: A 2.22, D 2.09, E 2, F 2.49, H 1.99, M 3.54, N 1.76, P 1.66, Q 2.37, R 2.6, S 3.15, V 3.31
A6: C 2.65, D 1.47, E 1.54, G 1.57, H 2.33, I 4.3, K 1.41, L 2.11, N 1.53, P 1.43, Q 2.02, R 2.08, T 2.8, Y 2.47
S7: A 1.85, C 3.12, D 1.55, F 2.06, G 1.24, H 3.69, I 4.7, K 2.07, M 2.8, N 2.14, P 1.93, T 2.48, V 2.27
M8: A 1.59, C 1.14, D 2.65, E 1.83, F 3.03, G 1.31, H 2.98, I 4.57, K 1.96, L 2.01, N 1.65, P 1.18, Q 1.49, R 1.9, S 1.02, T 1.82, V 2.73, W 1.05, Y 2.64
E9: A 2.72, C 2.96, D 2.27, F 2.73, L 3.73, N 1.74, P 3.01, R 2.71, V 3, W 2.46
I10: A 1.05, C 1.75, E 1.5, F 2.94, H 1.44, K 2.05, L 1.34, M 1.28, N 1.98, P 2.16, Q 1.62, S 1.05, T 1.87, V 2.24, Y 1.92
Y11: A 3.03, C 2.48, D 1.38, E 2.44, G 1.97, H 1.58, I 2.51, K 1.51, M 1.56, N 3.21, P 2.01, Q 2.07, R 1.88, S 2.13
G12: E 1.45, F 2.79, L 2.98, P 2.37, Q 1.85, T 2.86, V 3.44, W 2.26
S13: A 2.72, C 2.05, D 2.37, E 1.36, G 1.68, I 2.46, P 2.48
